Laboratory results published in paper PMC8244255 (Current Research in Structural Biology, 2021).

Experiments:
[1] = biological target: C-lobe fragment (CaM 76–146) (Homo sapiens, UniProt P0DP23); experiment: ITC of CK peptides with C-lobe fragment of CaM; assay type: binding; conditions: C-lobe compared to N-lobe
Full-length human CaM = Full-length human CaM (Homo sapiens, UniProt P0DP23); experiment: ITC of CK peptides with full-length CaM; assay type: binding
[2] = biological target: Calmodulin N-terminal globular domain (N-lobe fragment, sequence 1-75) (human, UniProt P0DP23 1-75); experiment: ITC
[3] = biological target: Calmodulin C-terminal globular domain (C-lobe fragment, sequence 76-146) (human, UniProt P0DP23 76-146); experiment: ITC

## Ac-NLGKHEKFSEVLKRLRLQ-NH2 [CKB peptide]
[1]
  affinity for C-lobe relative to N-lobe (times higher): ca. 10 times
Full-length human CaM; presence of Ca2+
  stoichiometry n: 2

## AcNH-LKRLRLQKRGTGGVDTAA-CONH2 [peptide covering CKB residues 312–329]
Full-length human CaM; at any solution conditions
  binding to CaM: No binding could be detected

## Ac-HLSKHPKFEEILTRLRLQ-NH2 [CKM peptide (human muscle-type creatine kinase residues 301-318)]
[2]
  stoichiometry N: 1 peptide per fragment
[3]
  stoichiometry N: 1 peptide per fragment

## Ac-NLGKHEKFSEVLKRLRLQ-NH2 [CKB peptide (human brain-type creatine kinase residues 301-318)]
[2]
  stoichiometry N: 1 peptide per fragment
[3]
  stoichiometry N: 1 peptide per fragment
